B1: FIXa-R318Y/R338E/T343R (activated CB 2679d, FIX of SEQ ID NO:394) (protein)
chain 1: not shown
chain 2: not shown
B2: FIXa-R318Y/R338E/E410N (protein)
chain 1: not shown
chain 2: not shown
B3: FIXa-K228N/K247N/N249S (protein)
chain 1: not shown
chain 2: not shown
B4: FIXa-Y155F/R318Y/R338E/T343R/R403E (protein)
chain 1: not shown
chain 2: not shown
B5: FIXa-K247N/N249S/R318Y/R338E/T343R/R403E/E410N (protein)
chain 1: not shown
chain 2: not shown
B6: FIXa-R338E/T343R/R403E/E410N (protein)
chain 1: not shown
chain 2: not shown
B7: FIXa-K247N/N249S/R338E/T343R/R403E (protein)
chain 1: not shown
chain 2: not shown
B8: FIXa-Y155F/R318Y/R338E/T343R/E410N (protein)
chain 1: not shown
chain 2: not shown
B9: FIXa-R318Y/R338E/T343R/R403E (protein)
chain 1: not shown
chain 2: not shown
B10: FIXa-K247N/N249S/R338E/R403E/E410N (protein)
chain 1: not shown
chain 2: not shown
B11: FIXa-Y155F/R318Y/T343R/R403E/E410N (protein)
chain 1: not shown
chain 2: not shown
B12: FIX of SEQ ID NO:394, with the replacements R318Y/R338E/T343R (activated form, FIXa) (protein)
chain 1: not shown
chain 2: not shown

Key:
[1] = biological target: Factor X (FX), active site titrated and DFP/EGR-cmk treated zymogen, P00742
Factor X (FX), active site titrated and DFP/EGR-cmk treated zymogen, P00742, sequence (P00742 whole entry, looked up): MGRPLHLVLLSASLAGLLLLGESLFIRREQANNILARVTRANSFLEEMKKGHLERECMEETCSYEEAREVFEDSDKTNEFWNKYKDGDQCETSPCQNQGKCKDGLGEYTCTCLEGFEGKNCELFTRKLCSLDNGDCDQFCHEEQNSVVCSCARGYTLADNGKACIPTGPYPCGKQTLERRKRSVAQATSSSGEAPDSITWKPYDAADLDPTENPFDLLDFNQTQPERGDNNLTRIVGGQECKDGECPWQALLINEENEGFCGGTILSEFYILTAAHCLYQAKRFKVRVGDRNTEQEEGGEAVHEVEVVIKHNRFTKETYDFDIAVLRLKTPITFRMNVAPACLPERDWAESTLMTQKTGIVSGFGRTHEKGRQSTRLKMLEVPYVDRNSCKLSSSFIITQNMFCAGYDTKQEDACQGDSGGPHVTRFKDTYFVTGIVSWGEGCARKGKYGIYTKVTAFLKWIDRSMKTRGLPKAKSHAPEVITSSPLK

[2] = biological target: Factor VIIIa (FVIIIa), P00451
Factor VIIIa (FVIIIa), P00451, sequence (P00451 other isoform, or with tags, fused parts or gaps): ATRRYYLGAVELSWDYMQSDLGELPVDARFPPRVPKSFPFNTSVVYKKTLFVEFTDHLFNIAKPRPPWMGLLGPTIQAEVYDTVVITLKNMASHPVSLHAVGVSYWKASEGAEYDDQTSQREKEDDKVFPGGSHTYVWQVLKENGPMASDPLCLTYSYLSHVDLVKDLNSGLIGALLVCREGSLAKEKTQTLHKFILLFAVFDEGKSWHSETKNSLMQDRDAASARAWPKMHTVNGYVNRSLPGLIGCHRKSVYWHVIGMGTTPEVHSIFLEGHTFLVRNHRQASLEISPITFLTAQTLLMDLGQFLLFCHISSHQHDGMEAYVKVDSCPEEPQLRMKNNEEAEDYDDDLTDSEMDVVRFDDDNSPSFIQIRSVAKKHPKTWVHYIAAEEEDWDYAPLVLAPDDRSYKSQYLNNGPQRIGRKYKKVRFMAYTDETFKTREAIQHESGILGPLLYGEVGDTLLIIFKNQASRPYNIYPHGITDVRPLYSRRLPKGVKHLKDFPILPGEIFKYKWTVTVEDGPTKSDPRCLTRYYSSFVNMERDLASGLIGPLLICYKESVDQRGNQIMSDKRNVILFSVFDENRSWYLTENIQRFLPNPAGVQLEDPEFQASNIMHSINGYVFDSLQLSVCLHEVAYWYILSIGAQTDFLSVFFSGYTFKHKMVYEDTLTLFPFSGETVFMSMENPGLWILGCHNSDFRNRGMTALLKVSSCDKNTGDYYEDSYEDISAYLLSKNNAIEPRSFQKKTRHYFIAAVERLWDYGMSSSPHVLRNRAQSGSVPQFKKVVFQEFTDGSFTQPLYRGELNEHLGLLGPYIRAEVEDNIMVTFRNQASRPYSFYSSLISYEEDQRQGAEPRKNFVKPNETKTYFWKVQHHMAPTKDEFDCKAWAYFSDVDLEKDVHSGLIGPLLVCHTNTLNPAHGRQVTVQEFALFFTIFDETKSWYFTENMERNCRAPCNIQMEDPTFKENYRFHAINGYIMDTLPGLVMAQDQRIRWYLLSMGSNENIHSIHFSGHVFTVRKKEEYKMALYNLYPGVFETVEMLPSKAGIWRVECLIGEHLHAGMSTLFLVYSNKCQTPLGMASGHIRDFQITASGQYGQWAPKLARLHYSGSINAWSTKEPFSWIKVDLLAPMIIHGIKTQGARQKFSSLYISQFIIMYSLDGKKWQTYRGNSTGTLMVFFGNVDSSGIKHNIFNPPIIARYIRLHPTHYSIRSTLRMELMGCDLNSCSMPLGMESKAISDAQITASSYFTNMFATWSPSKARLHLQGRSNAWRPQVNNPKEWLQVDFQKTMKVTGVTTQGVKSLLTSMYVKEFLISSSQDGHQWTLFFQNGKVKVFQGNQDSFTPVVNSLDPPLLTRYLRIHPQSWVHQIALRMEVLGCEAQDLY

Factor X (FX), P00742, sequence (P00742 whole entry, looked up): as the sequence (P00742 whole entry, looked up) above
Factor X, P00742, sequence (P00742 whole entry, looked up): as above

Protein | catalytic activity (kcat/KM for activation of FX) [1] | kcat/KM (Factor X, P00742) [M⁻¹ s⁻¹] | KM (Factor X (FX), P00742) [µM] | also measured
B1 |  |  |  | catalytic efficiency for the activation of FX [1]: approximately 3-fold enhanced catalytic efficiency for the activation of FX
B2 | displayed some of the greatest increases in catalytic activity |  |  | 
B3 | demonstrated close to wild-type activity |  |  | % of WT kcat/KM (against Catalyst Biosciences WT FIXa) (Factor X (FX), P00742): 83%; kcat/KM for activation of FX by FIXa in the Xase complex (FVIIIa, PC/PS vesicles, Ca2+), fluorogenic Spectrafluor FXa read-out (Factor X (FX), P00742): 3.8e+07 M⁻¹ s⁻¹
B4 |  | 2.6e+08 | 0.034 | 
B5 | improved activity when combined with other mutations | 3.8e+08 |  | 
B6 |  | 3e+08 | 0.0347 | 
B7 | improved activity when combined with other mutations |  |  | KM (Factor X, P00742): 0.0263 µM; kcat (Factor X (FX), P00742): 14.6 s⁻¹
B8 |  | 3.7e+08 | 0.0256 | 
B9 |  | 1.6e+08 | 0.0443 | 
B10 |  | 1.9e+08 | 0.025 | 
B11 |  | 2.6e+08 | 0.034 | 
B12 |  |  |  | Cofactor-Dependent Indirect kcat/KM (M-1s-1), FX activation (Factor X (FX), P00742): 1.2e+08 M⁻¹ s⁻¹; Fold Increase over BeneFIX FIX (kcat/KM, FX activation) (Factor X (FX), P00742): 2.8 fold; Pro-coagulant Activity, Fold Change (in vitro) (Factor X (FX), P00742): 2.8 fold; FIX activity (mean) at 5 ng/mL FVIIIa, Test 1 [2]: 278; FIX activity (mean) at 10 ng/mL FVIIIa, Test 2 [2]: 479; FIX activity (mean) at 15 ng/mL FVIIIa, Test 3 [2]: 622; Fold increase after FVIIIa addition (5 ng/mL), Test 1 [2]: 225 fold; Fold increase after FVIIIa addition (10 ng/mL), Test 2 [2]: 384 fold; Fold increase after FVIIIa addition (15 ng/mL), Test 3 [2]: 486 fold; Ratio (CB2679d vs BeneFIX) of FIX activity at 5 ng/mL FVIIIa [2]: 2; Ratio (CB2679d vs BeneFIX) of FIX activity at 10 ng/mL FVIIIa [2]: 2; Ratio (CB2679d vs BeneFIX) of FIX activity at 15 ng/mL FVIIIa [2]: 2

Source: patent US11491212
